Data: patent US20190022179A1 (B G NEGEV TECHNOLOGIES AND APPLICATIONS, published 2019)

Tests used:
[1] = molecular target: T1, recombinant human SOD1^WT, 6His-tagged (N-term), expressed in E. coli (human, UniProt P00441 2-154, in the MST assay labeled with BLUE fluorescent dye NT-495-NHS (lysine chemistry)); experiment: MST instrument, fluorescence change of labeled SOD1^WT (200 nM), peptide 0-100 µM
T1 construct: also called wild type SOD1; not shown: N-terminal 6His tag from pHIS1 vector

[2] = molecular target: T2, recombinant human SOD1^G93A, 6His-tagged (N-term), expressed in E. coli (human, UniProt P00441 2-154, G93A, in the MST assay labeled with BLUE fluorescent dye NT-495-NHS (lysine chemistry)); experiment: MST instrument, fluorescence change of labeled SOD1^G93A (300 nM), peptide 0-100 µM
T2 construct: Dimer by gel filtration, partially monomerizes and precipitates at 37 C; also called SOD1M; not shown: N-terminal 6His tag from pHIS1 vector
T2 sequence (P00441 2-154 G94A): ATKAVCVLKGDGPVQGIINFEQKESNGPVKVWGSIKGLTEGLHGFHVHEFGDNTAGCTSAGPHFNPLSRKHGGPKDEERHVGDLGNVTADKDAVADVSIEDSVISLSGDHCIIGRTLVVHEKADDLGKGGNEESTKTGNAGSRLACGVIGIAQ

[3] = molecular target: T1, recombinant human SOD1^WT, 6His-tagged …; experiment: MST fluorescence change, labeled SOD1^WT 200 nM
Experimental: The assessment of peptide binding to the proteins was carried out using Monolith NT.115 (NanoTemper Technologies, Munchen, Germany). […] The final concentration of either DMSO or DMF in the binding buffer was 1%. […] The binding data were analyzed by a non-linear regression using a logistic (three parameter) function implemented in Prism6 (GraphPad) program.
The binding of synthetic peptides to fluorescently labeled SOD1^WT or SOD1^G93A was assessed using a microscale thermophoresis technique (MST).

T1 sequence (P00441 2-154): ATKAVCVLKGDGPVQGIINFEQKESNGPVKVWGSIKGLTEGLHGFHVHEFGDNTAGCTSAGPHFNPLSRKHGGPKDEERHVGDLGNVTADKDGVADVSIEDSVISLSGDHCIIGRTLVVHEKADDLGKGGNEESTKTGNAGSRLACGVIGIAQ

| Binder | binding result [1] | binding result [2] | binding result [3] |
| --- | --- | --- | --- |
| LSGDHCIIGRTLVVHEKADD (Synthesized by GL Biochem; purity >90%) [peptide SE-12 (SOD1 aa. 106-125)] | binds | binds | – |
| DKDGVADVSIEDSVISLSGD (Synthesized by GL Biochem; purity >90%) [peptide SE-11 (SOD1 aa. 90-109)] | – | binds | no binding (tested: peptide 0-100 µM) |
